The source of these data is patent US20260049134A1 (UNIVERSITY OF FLORIDA RESEARCH FOUNDATION, published 2026).

Numbering of substitutions follows the chain as printed. Names may count otherwise.

The target in assay [1] is T1, PTPRG, endogenous in H929 multiple myeloma cells (human, UniProt P23470 20-1445).
T1 construct: Native protein on H929 cells (flow cytometry, siRNA knockdown) and in H929 lysates (IP/MS); also called phosphatase receptor type γ
Put plainly: flow cytometry, H929 + CDH18 siRNA; None 0.19.

In assay [2] the target is T1, PTPRG, endogenous in H929 multiple …. The experiment in a line: flow cytometry, H929 + GARS siRNA; None 0.2. For orientation: Flow cytometry measures light scatter and fluorescence of single cells or particles in a stream.
The target in assay [3] is T2, ICAM1, endogenous in H929 multiple myeloma cells (human, UniProt P05362 28-532).
T2 construct: Native protein on H929 cells (flow cytometry, siRNA knockdown) and in H929 lysates (IP/MS); also called CD54
Put plainly: flow cytometry, H929 + CDH18 siRNA; None 0.19.

For assay [4], the target named is T2, ICAM1, endogenous in H929 multiple …. The experiment in a line: flow cytometry, H929 + GARS siRNA; None 0.2.
The target is the same in assay [5]. Put plainly: flow cytometry, H929 + CADM1 siRNA; None 449.
For assay [6] the target is unchanged. The experiment in a line: flow cytometry, H929 + PTPRG siRNA; None 490.
Assay [7] deals with T3, CADM1, endogenous in H929 multiple myeloma cells (human, UniProt Q9BY67 45-442).
T3 construct: Native protein on H929 cells (flow cytometry, siRNA knockdown) and in H929 lysates (IP/MS); RPMI-8226 cells were used for sorting with HW-97; also called IGSF4A
T3 sequence: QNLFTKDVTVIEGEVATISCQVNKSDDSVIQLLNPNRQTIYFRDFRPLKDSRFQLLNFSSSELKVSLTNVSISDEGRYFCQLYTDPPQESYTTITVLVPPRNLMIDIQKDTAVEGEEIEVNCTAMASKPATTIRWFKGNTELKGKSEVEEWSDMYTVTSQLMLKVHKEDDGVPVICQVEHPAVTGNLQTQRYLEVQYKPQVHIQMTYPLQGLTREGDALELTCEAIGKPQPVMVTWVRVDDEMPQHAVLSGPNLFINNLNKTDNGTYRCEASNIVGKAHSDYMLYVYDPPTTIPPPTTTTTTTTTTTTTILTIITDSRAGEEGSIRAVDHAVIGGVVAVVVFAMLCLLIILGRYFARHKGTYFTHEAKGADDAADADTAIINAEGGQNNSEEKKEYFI
Put plainly: flow cytometry, H929 + CDH18 siRNA; None 0.19.

Assay [8] has as its target T3, CADM1, endogenous in H929 multiple …. The experiment in a line: flow cytometry, H929 + GARS siRNA; None 0.2.
Assay [9] deals with T1, PTPRG, endogenous in H929 multiple …. The experiment in a line: flow cytometry, AF647-IgG1 on H929 cells. As to the method: (§1) Staining protocol. Cells were harvested (5×10⁴ cells per sample), washed once with phosphate-buffered saline (PBS) at RT, and a second time with ice-cold FACS buffer (PBS, 0.5% BSA, 2 mM EDTA, 0.1% NaN₃). Cells were stained in 50 μL of primary antibody for 30 min on ice, washed twice with 100 μL FACS buffer, stained with 50 μL of diluted secondary antibody, washed two more times in FACS, and then resuspended in 50 μL FACS buffer. Samples were acquired on an Accuri C6 Plus or a BD FACSCanto II flow cytometer (both from BD Biosciences). Data were analyzed using FlowJo version 10 software. Primary antibodies: Fab (10 μg/mL), IgG1 (0.1 to 50 μg/mL), or 25 μL polyclonal Fabs from periplasmic extracts. Polyclonal Fabs were produced by diluting bacterial stocks by a factor of 100 in autoinduction media and incubating overnight to induce expression as previously described. […] Viability stains: DAPI (Cell Signaling Technology) or SYTOX AADvanced Dead Cell Stain (Thermo Fisher Scientific). Labeling: The panel of chimeric rabbit/human IgG1s was labeled using the Alexa Fluor 647 Labeling Kit (Thermo Fisher Scientific, #A20173) to facilitate single-step staining. Competition: Unlabeled IgG1s were added at saturating concentrations of 60 μg/mL to block the target receptors, incubating on ice for 30 min, followed by the addition of an equal volume of the Alexa Fluor 647 labeled antibody at 2 μg/mL, and the mixture was incubated on ice for another 30 min.

Assay [10] addresses T3, CADM1, endogenous in H929 multiple …. Put plainly: flow cytometry, AF647-IgG1 on H929 cells. As for the experimental part:
as §1

In assay [11] the target is T2, ICAM1, endogenous in H929 multiple …. The experiment in a line: flow cytometry, AF647-IgG1 on H929 cells. As to the method: as §1
Assay [12] addresses T1, PTPRG, endogenous in H929 multiple …. The experiment in a line: flow cytometry, IgG1 on cell lines, heatmap of % positive cells.
The next assay has as its target T4, PTPRG on U266 cells (human, UniProt P23470).
T4 construct: endogenous on U266 multiple myeloma cells; also called HW-1 target on U266
The assay is described as above.

T1 sequence (P23470 20-1445 limits assumed): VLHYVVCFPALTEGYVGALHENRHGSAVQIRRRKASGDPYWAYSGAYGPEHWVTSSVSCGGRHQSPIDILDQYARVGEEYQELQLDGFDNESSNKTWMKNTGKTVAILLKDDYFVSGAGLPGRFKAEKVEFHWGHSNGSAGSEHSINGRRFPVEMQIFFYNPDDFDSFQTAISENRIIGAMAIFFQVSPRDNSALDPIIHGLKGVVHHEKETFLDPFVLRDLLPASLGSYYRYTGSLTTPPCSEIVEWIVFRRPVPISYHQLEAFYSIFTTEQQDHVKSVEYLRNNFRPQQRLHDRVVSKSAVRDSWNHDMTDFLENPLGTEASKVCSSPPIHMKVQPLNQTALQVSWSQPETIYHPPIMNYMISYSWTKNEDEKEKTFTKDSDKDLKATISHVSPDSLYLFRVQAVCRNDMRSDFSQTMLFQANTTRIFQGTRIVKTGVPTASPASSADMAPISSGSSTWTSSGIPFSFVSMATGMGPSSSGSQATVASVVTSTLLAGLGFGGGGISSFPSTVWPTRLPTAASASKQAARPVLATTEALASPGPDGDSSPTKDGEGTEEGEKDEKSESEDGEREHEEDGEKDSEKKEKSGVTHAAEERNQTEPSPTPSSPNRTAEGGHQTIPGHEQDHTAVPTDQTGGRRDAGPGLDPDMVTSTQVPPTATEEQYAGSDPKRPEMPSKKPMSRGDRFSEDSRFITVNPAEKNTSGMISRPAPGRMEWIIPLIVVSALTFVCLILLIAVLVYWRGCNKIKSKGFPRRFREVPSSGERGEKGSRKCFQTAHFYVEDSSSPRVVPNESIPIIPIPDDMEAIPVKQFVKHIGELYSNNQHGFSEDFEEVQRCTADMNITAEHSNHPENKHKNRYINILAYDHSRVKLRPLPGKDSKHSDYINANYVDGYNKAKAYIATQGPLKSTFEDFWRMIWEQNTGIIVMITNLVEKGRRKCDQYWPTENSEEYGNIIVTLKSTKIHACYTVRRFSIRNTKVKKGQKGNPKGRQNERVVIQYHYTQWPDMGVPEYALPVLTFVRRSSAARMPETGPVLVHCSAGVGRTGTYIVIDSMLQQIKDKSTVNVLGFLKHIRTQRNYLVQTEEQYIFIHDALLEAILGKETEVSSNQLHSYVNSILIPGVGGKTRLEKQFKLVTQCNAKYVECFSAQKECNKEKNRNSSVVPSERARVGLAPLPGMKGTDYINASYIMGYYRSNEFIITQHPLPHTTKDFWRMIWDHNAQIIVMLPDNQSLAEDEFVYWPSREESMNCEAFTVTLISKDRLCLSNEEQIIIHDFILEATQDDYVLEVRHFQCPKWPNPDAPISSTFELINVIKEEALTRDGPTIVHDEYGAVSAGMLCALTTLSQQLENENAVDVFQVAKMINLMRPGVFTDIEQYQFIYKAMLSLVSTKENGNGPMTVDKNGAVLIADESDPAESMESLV
T2 sequence (P05362 28-532 limits assumed): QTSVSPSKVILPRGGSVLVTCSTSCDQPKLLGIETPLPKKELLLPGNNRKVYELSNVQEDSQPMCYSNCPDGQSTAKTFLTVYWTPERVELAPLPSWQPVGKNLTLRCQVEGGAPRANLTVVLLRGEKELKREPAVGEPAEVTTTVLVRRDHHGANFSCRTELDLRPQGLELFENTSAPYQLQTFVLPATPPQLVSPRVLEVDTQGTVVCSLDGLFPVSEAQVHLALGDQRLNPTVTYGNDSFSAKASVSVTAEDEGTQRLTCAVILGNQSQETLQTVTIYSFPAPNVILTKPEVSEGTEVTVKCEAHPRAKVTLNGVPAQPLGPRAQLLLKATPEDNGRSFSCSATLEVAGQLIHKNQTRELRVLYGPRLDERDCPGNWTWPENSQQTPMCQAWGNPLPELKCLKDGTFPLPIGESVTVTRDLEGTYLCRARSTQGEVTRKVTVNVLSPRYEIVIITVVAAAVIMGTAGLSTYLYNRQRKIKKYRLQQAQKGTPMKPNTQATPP
T4 sequence (P23470 20-1445 limits assumed): as the sequence (P23470 20-1445 limits assumed) above

B1: HW-42 chimeric rabbit-human IgG1 LA/LA/PG (antibody, V domains shown)
VH: QSVKESEGGLFKPADTLTLTCTVSGFSLSSNEISWVRQAPGEGLEYIGIIDTGGRAYYAVWARSRSTITRNTNLNTVTLKMTSLTAADTATYFCARGGVDTEWYAFSSWGPGTLVTVPS
VL: SFVLTQPASVQVNLGQTVSLTCTADTLSRRYASWYQQKPGQAPVLLIFRDTSRPSGVPDRFSGSSSGDTATLTISGAQAGDEADYYCATSDGSGSNYQYVFGGGTQLTVTG
notes: Fc-silenced (L234A/L235A/P329G) IgG1, lambda; Alexa Fluor 647-labeled in single-step flow cytometry; Cluster C-1
Regarding B1, the “Cells stained (%)” value in [1] came to 99.5%; in assay [2] it was 98.8%.

B2: HW-113 chimeric rabbit-human IgG1 LA/LA/PG (antibody, V domains shown)
VH: QKQLVESGGGLVQPGGSLTLTCTVSGFSLNKYYMGWFRQAPGKGLEWIGVISRSGDTYYSSWAKGRFTISKASTTVDLRITSPTTEDTATYFCARDASSPGFHGDRLDLWGQGTLVTVSS
VL: B1 VL with R30S, F48Y, D68N, S93I, Q98L, Y99W
notes: Fc-silenced (L234A/L235A/P329G) IgG1, lambda; Alexa Fluor 647-labeled in single-step flow cytometry
As for B2, the “Cells stained (%)” value in assay [3] worked out at 98.8%; in assay [4], 99.8%. Further, the figures for the “mAb binding (MFI)” value in [5] and in assay [6] were 32600 and 27800, respectively.

B3: HW-97 chimeric rabbit-human IgG1 LA/LA/PG (antibody, V domains shown)
VH: QKQLVESGGRLVTPGTPLTLTCTVTGIDLSSHGMSWVRQAPGKGLEWIGVIYPSGSTWYASWARGRFTISKTSTTVDLKMTSLTTEDTATHFCARGDVGGADNNIWGPGTLVTVSS
VL: B1 VL with N13D, D25E, R30S, F48Y, D68N, N96S
notes: Fc-silenced (L234A/L235A/P329G) IgG1, lambda; Alexa Fluor 647-labeled in single-step flow cytometry; Prototype of cluster C-97
Take B3: the “Cells stained (%)” value in assay [7] was found to be 99.7%; in assay [8] it was 99.9%.

B4: TH9-0022 (antibody, human IgG1, kappa, L234A L235A, V domains shown)
VH: QSLEESGGRLVTPGTPLTLTCTVSGFSLSSYAMNWVRQAPGKGLEWIGIINSYGSTYYASWAKGRFTISKTSTTVDLKITSPTTEDTATYFCARVTYDSYGYGYAPYGMDLWGPGTLVTVSS
VL: LVMTQTPSSTSNAVGGTVTIKCQASQSIGNVLAWYQQKPGQPPKLLIYAASTLASGVPSRVGGSRSGTEYTLTISGVQREDAATYYCLGSDSDSDIAFGGGTELEILR
notes: also called TH9-022; negative control
For the molecule B4, the binding result in assay [9], in assay [10] and in assay [11] was “no binding” in each case.

B5: TH9-0022 (antibody, human IgG1, kappa, L234A L235A, V domains shown)
VH: B4 VH
VL: B4 VL
notes: also called TH9-022; negative control IgG1
Regarding B5, the binding result (in assay [12]; in the assay with PTPRG on U266 cells) was “no binding” each time.
